Measurements reported in patent US20260248972A1, “DUAL RECEPTOR TARGETING RADIOLIGANDS AND USES THEREOF RELATED APPLICATIONS” (priority 2022, published 2026).

How the values were obtained:
CCK2R = target: T1, CCK2R (Rattus norvegicus, UniProt P30553); assay: Competitive cell-binding assay on AR42J cells with 125I-C3 as competitive ligand; details: based on mean IC50, C-2 = 1.00
T1 construct: host or cells: AR42J cells
T1 sequence (P30553 1-452): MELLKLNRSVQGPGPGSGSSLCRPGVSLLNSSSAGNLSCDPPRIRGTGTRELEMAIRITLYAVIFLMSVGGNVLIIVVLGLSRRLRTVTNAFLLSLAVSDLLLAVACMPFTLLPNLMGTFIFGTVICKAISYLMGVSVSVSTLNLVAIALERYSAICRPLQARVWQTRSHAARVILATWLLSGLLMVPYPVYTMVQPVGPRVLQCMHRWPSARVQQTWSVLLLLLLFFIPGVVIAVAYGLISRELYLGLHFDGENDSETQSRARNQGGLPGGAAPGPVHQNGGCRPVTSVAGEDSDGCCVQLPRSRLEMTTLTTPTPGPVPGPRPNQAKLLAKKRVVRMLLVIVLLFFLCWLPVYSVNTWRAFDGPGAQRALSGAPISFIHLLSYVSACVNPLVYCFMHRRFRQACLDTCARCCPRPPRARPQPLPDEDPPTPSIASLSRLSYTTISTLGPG
Procedure: (§1) AR42J cells (ATCC) were maintained in RPMI-1640 medium (Gibco) supplemented with 15% fetal bovine serum (Gibco) and 1% penicillin-streptomycin (BI) at 37° C. in a humidified incubator with 5% CO2. The culture medium was replaced with fresh medium every 2-3 days. Experiments were performed with cells at 70-80% confluence.
(§2) Binding Affinity Tested by Using ^125I-Labeled Competitive Ligands.
(§3) The binding affinities of test compounds were determined by a competitive cell-binding assay using ^125I-C1 and ^125I-C3 as the competitive ligand. The suspended AR42J cells at a density of 1~3×10^6 cells/mL in binding buffer (RPMI-1640 medium supplemented with 0.25% bovine serum albumin) were transferred to a MultiScreen-DV Filter Plate (Millipore) with 100 μL per well except the blank group where the binding buffer was used instead. The cells were then incubated with ^125I-C1 and ^125I-C3 (0.02 μCi/well) in the presence of increasing concentrations (0-10000 nM) of test compounds at 37° C. for 1 h (n=3). The final volume in each well was maintained at 200 μL and insufficient volume was adjusted by the binding buffer. After the 1 h incubation, unbound ^125I-competitive ligands were removed by filtration using a Multiscreen vacuum manifold (Millipore) followed by rinses with the binding buffer (3 times). The filters were collected, and their radioactivity were individually measured by γ counter (2480 WIZARD2, PerkinElmer). The best-fit IC50value (inhibitory concentration when 50% of the bound ^125I-C1 and ^125l I-C3 on cells were displaced) of test compounds were calculated by fitting the data with nonlinear regression using GraphPad Prism 8.0.1.

SSTR2 = target: T2, SSTR2 (Rattus norvegicus, UniProt P30680); assay: Competitive cell-binding assay on AR42J cells with 125I-C1 as competitive ligand; details: for Relative Binding Affinity SSTR2: based on mean IC50, C-1 = 1.00
T2 construct: host or cells: AR42J cells
T2 sequence (P30680 whole entry): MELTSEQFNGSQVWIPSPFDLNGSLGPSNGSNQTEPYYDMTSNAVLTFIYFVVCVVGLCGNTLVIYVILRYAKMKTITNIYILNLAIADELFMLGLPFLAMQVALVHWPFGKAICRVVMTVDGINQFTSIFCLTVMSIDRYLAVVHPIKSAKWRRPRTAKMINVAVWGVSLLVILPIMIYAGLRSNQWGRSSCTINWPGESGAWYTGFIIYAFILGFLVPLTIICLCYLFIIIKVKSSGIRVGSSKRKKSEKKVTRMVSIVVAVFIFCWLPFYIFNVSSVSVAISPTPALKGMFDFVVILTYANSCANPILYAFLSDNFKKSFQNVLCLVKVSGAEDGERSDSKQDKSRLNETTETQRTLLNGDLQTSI
Procedure: as §1, §2, §3

in vivo = details: BALB/c nude, mouse, in vivo, iv, total radioactivity
Method in brief: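 Compounds labelled with ^177Lu in 0.5 M NaOAc pH 4.5 at 95° C for 15 min, then used directly or diluted in PBS with 3 mg/mL ascorbate. BALB/c nude mice bore subcutaneous AR42J flank xenografts (0.05-0.50 g). Organs excised at 4, 24 and 72 h post-injection and γ-counted for % ID and % ID/g.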

C[C@@H](O)[C@H](NC(=O)[C@@H]1CSSC[C@H](NC(=O)[C@@H](Cc2ccccc2)NC(=O)COCCOCCNC(=O)[C@H](CCCCNC(=O)CN2CCN(CC(=O)O)CCN(CC(=O)O)CCN(CC(=O)O)CC2)NC(=O)CC[C@H](NC(=O)COCCOCCNC(=O)CC[C@H](NC(=O)[C@H](CCC(=O)O)NC(=O)c2cccc(NC(=O)N[C@@H]3CN(C4CCCCC4)c4ccccc4N(CC(=O)C(C)(C)C)C3=O)c2)C(=O)O)C(=O)O)C(=O)N[C@@H](Cc2ccc(O)cc2)C(=O)N[C@H](Cc2c[nH]c3ccccc23)C(=O)N[C@@H](CCCCN)C(=O)N[C@@H]([C@@H](C)O)C(=O)N1)C(=O)O [Compound I-12, (Z360)-E-gE-OEG-gE-K(DOTA)-OEG-f[CYwKTC]T-OH]
Relative Binding Affinity CCK2R (CCK2R): 255
Relative Binding Affinity SSTR2 (SSTR2): 0.61

C[C@@H](O)[C@H](NC(=O)[C@@H]1CSSC[C@H](NC(=O)[C@@H](Cc2ccccc2)NC(=O)COCCOCCNC(=O)COCCOCCNC(=O)[C@H](CCCCNC(=O)CCC(C(=O)O)N2CCN(CC(=O)O)CCN(CC(=O)O)CCN(CC(=O)O)CC2)NC(=O)COCCOCCNC(=O)COCCOCCNC(=O)CC[C@H](NC(=O)CC[C@H](NC(=O)c2cccc(NC(=O)N[C@@H]3CN(C4CCCCC4)c4ccccc4N(CC(=O)C(C)(C)C)C3=O)c2)C(=O)O)C(=O)O)C(=O)N[C@@H](Cc2ccc(O)cc2)C(=O)N[C@H](Cc2c[nH]c3ccccc23)C(=O)N[C@@H](CCCCN)C(=O)N[C@@H]([C@@H](C)O)C(=O)N1)C(=O)O (stereo partly shown) [Compound I-17, (Z360)- gE- gE- OEG- OEG- K(DOTAGA)- OEG- OEG- f[CYwKTC]T- OH (]
Relative Binding Affinity CCK2R (CCK2R): 17.3
Relative Binding Affinity SSTR2 (SSTR2): 0.16

C[C@@H](O)[C@H](NC(=O)[C@@H]1CSSC[C@H](NC(=O)[C@@H](Cc2ccccc2)NC(=O)COCCOCCNC(=O)COCCOCCNC(=O)[C@H](CCCCNC(=O)CC[C@H](NC(=O)CNC(=O)c2cccc(NC(=O)N[C@@H]3CN(C4CCCCC4)c4ccccc4N(CC(=O)C(C)(C)C)C3=O)c2)C(=O)O)NC(=O)CN2CCN(CC(=O)O)CCN(CC(=O)O)CCN(CC(=O)O)CC2)C(=O)N[C@@H](Cc2ccc(O)cc2)C(=O)N[C@H](Cc2c[nH]c3ccccc23)C(=O)N[C@@H](CCCCN)C(=O)N[C@@H]([C@@H](C)O)C(=O)N1)C(=O)O [Compound I-2, DOTA-K(-gE-G-Z360)-OEG-OEG-f[CYwKTC]T-OH]
Relative Binding Affinity SSTR2 (SSTR2): 2.94

C[C@@H](O)[C@H](NC(=O)[C@@H]1CSSC[C@H](NC(=O)[C@@H](Cc2ccccc2)NC(=O)CN2CCN(CC(=O)O)CCN(CC(=O)O)CCN(CC(=O)O)CC2)C(=O)N[C@@H](Cc2ccc(O)cc2)C(=O)N[C@H](Cc2c[nH]c3ccccc23)C(=O)N[C@@H](CCCCN)C(=O)N[C@@H]([C@@H](C)O)C(=O)N1)C(=O)O [Compound C-1, DOTA-f[CYwKTC]T-OH, reference compound]
IC50 (SSTR2): 2.81 nM

CC(C)(C)C(=O)CN1C(=O)[C@H](NC(=O)Nc2cccc(C(=O)N[C@@H](CCC(=O)N[C@@H](CCC(=O)N[C@@H](CCC(=O)N[C@@H](CCCCNC(=O)COCCOCCNC(=O)COCCOCCNC(=O)CCC(C(=O)O)N3CCN(CC(=O)O)CCN(CC(=O)O)CCN(CC(=O)O)CC3)C(N)=O)C(=O)O)C(=O)O)C(=O)O)c2)CN(C2CCCCC2)c2ccccc21 (stereo partly shown) [Compound C-4, Z360-gE-gE-gE-K(-OEG-OEG-DOTAGA)-NH2, reference compound]
Relative Binding Affinity CCK2R (CCK2R): 21.9

C[C@@H](O)[C@H](NC(=O)[C@@H]1CSSC[C@H](NC(=O)[C@@H](Cc2ccccc2)NC(=O)COCCOCCNC(=O)[C@H](CCCCNC(=O)[C@H](CCC(=O)O)NC(=O)c2cccc(NC(=O)N[C@@H]3CN(C4CCCCC4)c4ccccc4N(CC(=O)C(C)(C)C)C3=O)c2)NC(=O)CN2CCN(CC(=O)O)CCN(CC(=O)O)CCN(CC(=O)O)CC2)C(=O)N[C@@H](Cc2ccc(O)cc2)C(=O)N[C@H](Cc2c[nH]c3ccccc23)C(=O)N[C@@H](CCCCN)C(=O)N[C@@H]([C@@H](C)O)C(=O)N1)C(=O)O [Compound I-27, DOTA-K(-E-Z360)-OEG-f[CYwKTC]T-OH]
Relative Binding Affinity SSTR2 (SSTR2): 0.51
tissue to tissue ratio at 24 h (in vivo; T/K Tumor/Kidney ratio): 1.4
tissue to tissue ratio at 24 h (in vivo; T/L Tumor/Liver ratio): 26
tissue to tissue ratio at 24 h (in vivo; T/P Tumor/Pancreas ratio): 16
tissue to tissue ratio at 24 h (in vivo; T/Sp Tumor/Spleen ratio): 64
tissue to tissue ratio at 24 h (in vivo; T/St Tumor/Stomach ratio): 6.3
tissue uptake at 24 h (in vivo; uptake Kidney): 21 %ID/g
tissue uptake at 24 h (in vivo; uptake Liver): 1.11 %ID/g
tissue uptake at 24 h (in vivo; uptake Pancreas): 1.79 %ID/g
tissue uptake at 24 h (in vivo; uptake Spleen): 0.44 %ID/g
tissue uptake at 24 h (in vivo; uptake Stomach): 4.51 %ID/g
tissue uptake at 24 h (in vivo; uptake Tumor): 28.5 %ID/g

C[C@@H](O)[C@H](NC(=O)[C@@H]1CSSC[C@H](NC(=O)[C@@H](Cc2ccccc2)NC(=O)COCCOCCNC(=O)[C@H](CCCCNC(=O)c2cccc(NC(=O)N[C@@H]3CN(C4CCCCC4)c4ccccc4N(CC(=O)C(C)(C)C)C3=O)c2)NC(=O)CN2CCN(CC(=O)O)CCN(CC(=O)O)CCN(CC(=O)O)CC2)C(=O)N[C@@H](Cc2ccc(O)cc2)C(=O)N[C@H](Cc2c[nH]c3ccccc23)C(=O)N[C@@H](CCCCN)C(=O)N[C@@H]([C@@H](C)O)C(=O)N1)C(=O)O [Compound 177Lu-I-37, metal not drawn]
tissue uptake at 4 h (in vivo; % ID/g Adrenal gland): 2.01 %ID/g
tissue uptake at 24 h (in vivo; % ID/g Adrenal gland): 1.43 %ID/g
tissue uptake at 72 h (in vivo; % ID/g Adrenal gland): 0.22 %ID/g
tissue uptake at 4 h (in vivo; % ID/g Blood): 0.94 %ID/g
tissue uptake at 24 h (in vivo; % ID/g Blood): 0.18 %ID/g
tissue uptake at 72 h (in vivo; % ID/g Blood): 0.05 %ID/g
tissue uptake at 4 h (in vivo; % ID/g Fat): 3.28 %ID/g
tissue uptake at 24 h (in vivo; % ID/g Fat): 0.4 %ID/g
tissue uptake at 72 h (in vivo; % ID/g Fat): 0.32 %ID/g
tissue uptake at 4 h (in vivo; % ID/g Femur): 0.83 %ID/g
tissue uptake at 24 h (in vivo; % ID/g Femur): 0.26 %ID/g
tissue uptake at 72 h (in vivo; % ID/g Femur): 0.18 %ID/g
tissue uptake at 4 h (in vivo; % ID/g Heart): 1.12 %ID/g
tissue uptake at 24 h (in vivo; % ID/g Heart): 0.4 %ID/g
tissue uptake at 72 h (in vivo; % ID/g Heart): 0.15 %ID/g
tissue uptake at 4 h (in vivo; % ID/g Intestine): 2.17 %ID/g
tissue uptake at 24 h (in vivo; % ID/g Intestine): 0.67 %ID/g
tissue uptake at 72 h (in vivo; % ID/g Intestine): 0.5 %ID/g
tissue uptake at 4 h (in vivo; % ID/g Kidney): 22.5 %ID/g
tissue uptake at 24 h (in vivo; % ID/g Kidney): 7.79 %ID/g
tissue uptake at 72 h (in vivo; % ID/g Kidney): 3.16 %ID/g
tissue uptake at 4 h (in vivo; % ID/g Liver): 11 %ID/g
tissue uptake at 24 h (in vivo; % ID/g Liver): 2.4 %ID/g
tissue uptake at 72 h (in vivo; % ID/g Liver): 2.03 %ID/g
tissue uptake at 4 h (in vivo; % ID/g Lung): 4.42 %ID/g
tissue uptake at 24 h (in vivo; % ID/g Lung): 1.38 %ID/g
tissue uptake at 72 h (in vivo; % ID/g Lung): 1.41 %ID/g
tissue uptake at 4 h (in vivo; % ID/g Muscle): 0.38 %ID/g
tissue uptake at 24 h (in vivo; % ID/g Muscle): 0.1 %ID/g
tissue uptake at 72 h (in vivo; % ID/g Muscle): 0.03 %ID/g
tissue uptake at 4 h (in vivo; % ID/g Pancreas): 4.5 %ID/g
tissue uptake at 24 h (in vivo; % ID/g Pancreas): 0.68 %ID/g
tissue uptake at 72 h (in vivo; % ID/g Pancreas): 0.19 %ID/g
tissue uptake at 4 h (in vivo; % ID/g Spleen): 0.8 %ID/g
tissue uptake at 24 h (in vivo; % ID/g Spleen): 0.2 %ID/g
tissue uptake at 72 h (in vivo; % ID/g Spleen): 0.13 %ID/g
tissue uptake at 4 h (in vivo; % ID/g Stomach): 6.95 %ID/g
tissue uptake at 24 h (in vivo; % ID/g Stomach): 2.58 %ID/g
tissue uptake at 72 h (in vivo; % ID/g Stomach): 2.13 %ID/g
tissue uptake at 4 h (in vivo; % ID/g Tumor): 48.7 %ID/g
tissue uptake at 24 h (in vivo; % ID/g Tumor): 23.1 %ID/g
tissue uptake at 72 h (in vivo; % ID/g Tumor): 21.4 %ID/g
